Values of other authors in publication PMC10361719.

Target: Gag (Human immunodeficiency virus 1) (UniProt O93182)

Chain of Gag (O93182 2-500): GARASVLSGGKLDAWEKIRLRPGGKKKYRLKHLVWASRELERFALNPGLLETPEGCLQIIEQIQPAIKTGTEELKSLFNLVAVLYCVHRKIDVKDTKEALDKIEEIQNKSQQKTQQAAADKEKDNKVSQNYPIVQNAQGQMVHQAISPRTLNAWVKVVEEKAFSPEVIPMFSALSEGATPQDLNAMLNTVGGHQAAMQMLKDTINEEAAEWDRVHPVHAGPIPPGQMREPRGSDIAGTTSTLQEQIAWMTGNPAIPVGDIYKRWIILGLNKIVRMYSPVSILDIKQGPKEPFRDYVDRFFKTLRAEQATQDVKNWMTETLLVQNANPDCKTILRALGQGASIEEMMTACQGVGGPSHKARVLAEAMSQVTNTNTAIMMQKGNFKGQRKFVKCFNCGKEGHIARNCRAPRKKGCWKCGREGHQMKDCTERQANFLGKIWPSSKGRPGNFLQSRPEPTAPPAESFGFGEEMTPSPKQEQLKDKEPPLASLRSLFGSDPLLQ

Which Kd does the source give for Gag (from UniProt O93182) here?
The Kd was 5.5 µM.
